{"source": "paper PMC4661804", "about": "“Homeodomain Protein Scr Regulates the Transcription of Genes Involved in Juvenile Hormone Biosynthesis in the Silkworm”", "key": {"Scr (Sex combs reduced) [1]": {"biological_target": "T1, Scr (Sex combs reduced) (Bombyx mori, UniProt Q9XZR4 1-356)", "T1 sequence (Q9XZR4 entry or part of it)": "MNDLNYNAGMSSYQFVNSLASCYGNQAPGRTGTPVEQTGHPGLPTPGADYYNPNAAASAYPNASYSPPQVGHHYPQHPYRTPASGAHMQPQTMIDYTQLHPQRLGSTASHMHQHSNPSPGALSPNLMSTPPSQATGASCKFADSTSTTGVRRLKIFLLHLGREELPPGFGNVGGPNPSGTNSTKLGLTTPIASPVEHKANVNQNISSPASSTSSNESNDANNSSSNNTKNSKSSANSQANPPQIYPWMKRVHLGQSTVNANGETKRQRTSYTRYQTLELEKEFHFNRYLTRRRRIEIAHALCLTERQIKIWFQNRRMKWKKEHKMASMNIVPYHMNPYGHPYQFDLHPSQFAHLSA", "assay": "competition; unlabeled mutant, 5-50x, against labeled N3; EMSA: 0.1-1 ug protein, 5 uM labeled probe, 15 uL with 3 uL 5x binding buffer (Beyotime, composition not given), 25 C, 20 + 20 min; 5% PAGE in 1x TBE (45 mM Tris-borate, 1 mM EDTA, pH 8.3)", "conditions": "protein: recombinant; tags: His-SUMO (N-terminal, pCold-SUMO); label: none; blunt"}, "Scr (Sex combs reduced) [2]": {"biological_target": "T1, Scr (Sex combs reduced)", "assay": "EMSA; dose-dependent; competed by unlabeled probe; EMSA: 0.1-1 ug protein, 5 uM labeled probe, 15 uL with 3 uL 5x binding buffer (Beyotime, composition not given), 25 C, 20 + 20 min; 5% PAGE in 1x TBE (45 mM Tris-borate, 1 mM EDTA, pH 8.3)", "conditions": "protein: recombinant; tags: His-SUMO (N-terminal, pCold-SUMO); label: 5'-Cy3; blunt"}, "Scr (Sex combs reduced) [3]": {"biological_target": "T1, Scr (Sex combs reduced)", "assay": "competition; unlabeled mutant, 5-50x, against labeled N1; EMSA: 0.1-1 ug protein, 5 uM labeled probe, 15 uL with 3 uL 5x binding buffer (Beyotime, composition not given), 25 C, 20 + 20 min; 5% PAGE in 1x TBE (45 mM Tris-borate, 1 mM EDTA, pH 8.3)", "conditions": "protein: recombinant; tags: His-SUMO (N-terminal, pCold-SUMO); label: none; blunt"}, "Scr (Sex combs reduced) [4]": {"biological_target": "T1, Scr (Sex combs reduced)", "assay": "competition; unlabeled mutant, 5-50x, against labeled N5; EMSA: 0.1-1 ug protein, 5 uM labeled probe, 15 uL with 3 uL 5x binding buffer (Beyotime, composition not given), 25 C, 20 + 20 min; 5% PAGE in 1x TBE (45 mM Tris-borate, 1 mM EDTA, pH 8.3)", "conditions": "protein: recombinant; tags: His-SUMO (N-terminal, pCold-SUMO); label: none; blunt"}}}
{"binder": "FPPS2 mutant probe (dsDNA) DNA 1: TCGCAAGTGAAAACACCCCCTTCGCAATCGGTTCA DNA 2: TGAACCGATTGCGAAGGGGGTGTTTTCACTTGCGA", "values": [{"measurement": "binding result", "setting": "Scr (Sex combs reduced) [1]", "value": "no binding"}]}
{"binder": "FPPS2 probe (dsDNA) DNA 1: TCGCAAGTGAAAACAATTAATTCGCAATCGGTTCA DNA 2: TGAACCGATTGCGAATTAATTGTTTTCACTTGCGA", "values": [{"measurement": "binding result", "setting": "Scr (Sex combs reduced) [2]", "value": "binds"}]}
{"binder": "Allatotropin probe (dsDNA) DNA 1: CCATAGGTTTGTAGATAATTAGCGTAGCACGCTGTA DNA 2: TACAGCGTGCTACGCTAATTATCTACAAACCTATGG", "values": [{"measurement": "binding result", "setting": "Scr (Sex combs reduced) [2]", "value": "binds"}]}
{"binder": "Allatotropin mutant probe (dsDNA) DNA 1: CCATAGGTTTGTAGACCCCCAGCGTAGCACGCTGTA DNA 2: TACAGCGTGCTACGCTGGGGGTCTACAAACCTATGG", "values": [{"measurement": "binding result", "setting": "Scr (Sex combs reduced) [3]", "value": "no binding"}]}
{"binder": "JHAMT probe (dsDNA) DNA 1: ATGGCTAATTTTTTTAATGAATTAAAAGAAC DNA 2: GTTCTTTTAATTCATTAAAAAAATTAGCCAT", "values": [{"measurement": "binding result", "setting": "Scr (Sex combs reduced) [2]", "value": "binds"}]}
{"binder": "JHAMT mutant probe (dsDNA) DNA 1: ATGGCTAATTTTTTCCCCGAATTAAAAGAAC DNA 2: GTTCTTTTAATTCGGGGAAAAAATTAGCCAT", "values": [{"measurement": "binding result", "setting": "Scr (Sex combs reduced) [4]", "value": "no binding"}]}
